B1: wild-type N-terminal domain of major ampullate spidroin 1 (MaSp1) from Euprosthenops australis [Euprosthenops australis] / itself (parent)
chain: SHTTPWTNPGLAENFMNSFMQGLSSMPGFTASQLDDMSTIAQSMVQSIQSLAAQGRTSPNKLQALNMAFASSMAEIAASEEGGGSLSTKTSSIASAMSNAFLQTTGVVNQPFINEITQLVSMFAQAGMNDVSA

Variants of: B1
Test: high-resolution SEC
Details: with itself; read off a plot

Compared with SHTTPWTNPGLAENFLNSFLQGLSSMPGFTASQLDDMSTIAQSMVQSIQSLAAQGRTSPNKLQALNMAFASSMAEIAASEEGGGSLSTKTSSIASAMSNAFLQTTGVVNQPFINEITQLVSMFAQAGMNDVSA [chain 1 M16L M20L], SHTTPWTNPGLAENFLNSFLQGLSSMPGFTASQLDDLSTIAQSLVQSIQSLAAQGRTSPNKLQALNMAFASSMAEIAASEEGGGSLSTKTSSIASAMSNAFLQTTGVVNQPFINEITQLVSMFAQAGMNDVSA [chain 1 M16L M20L M37L M44L] is 4.1-fold higher in Kd: 160 nM for the first, 660 nM for the second.

SHTTPWTNPGLAENFLNSFLQGLSSMPGFTASQLDDLSTIAQSMVQSIQSLAAQGRTSPNKLQALNMAFASSMAEIAASEEGGGSLSTKTSSIASAMSNAFLQTTGVVNQPFINEITQLVSMFAQAGMNDVSA [chain 1 M16L M20L M37L] and SHTTPWTNPGLAENFLNSFLQGLSSMPGFTASQLDDLSTIAQSLVQSIQSLAAQGRTSPNKLQALNMAFASSLAEIAASEEGGGSLSTKTSSIASAMSNAFLQTTGVVNQPFINEITQLVSMFAQAGMNDVSA [chain 1 M16L M20L M37L M44L M73L] are within 1.5-fold of each other in Kd: 750 nM for the first, 1000 nM for the second.

— publication PMC6763431, “Methionine in a protein hydrophobic core drives tight interactions required for assembly of spider silk” (Nature Communications, 2019)
